The values below are quoted from earlier work in article PMC4067574.

Data set [1] concerns the target C3b C3b (Homo sapiens) (UniProt P01024).
Data set [2] has the same target. This is another data set of the same source.

Where two headings read alike, the source gives them in different places.

Chain of C3b C3b (Homo sapiens) (P01024 566-670): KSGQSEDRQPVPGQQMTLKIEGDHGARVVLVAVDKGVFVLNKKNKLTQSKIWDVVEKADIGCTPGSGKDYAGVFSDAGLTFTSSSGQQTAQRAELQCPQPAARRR
Chain of complement factor H C-terminal fragment C-terminal two modules (P08603 1103-1231): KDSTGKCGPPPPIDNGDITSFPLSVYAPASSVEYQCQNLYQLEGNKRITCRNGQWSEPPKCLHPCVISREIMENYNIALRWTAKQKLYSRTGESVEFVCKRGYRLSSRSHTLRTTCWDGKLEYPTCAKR
Chain of complement factor H rFH1-4 N-terminal modules 1-4 (P08603 19-264): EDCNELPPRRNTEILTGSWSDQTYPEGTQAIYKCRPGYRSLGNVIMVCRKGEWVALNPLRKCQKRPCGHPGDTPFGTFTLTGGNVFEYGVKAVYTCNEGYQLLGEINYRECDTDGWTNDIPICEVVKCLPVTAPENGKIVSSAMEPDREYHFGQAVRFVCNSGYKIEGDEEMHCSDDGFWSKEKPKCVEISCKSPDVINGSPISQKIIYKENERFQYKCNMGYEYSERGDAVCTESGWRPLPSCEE

Turning to “complement factor H C-terminal fragment C-terminal two modules (from UniProt P08603)”, the equilibrium dissociation constant (Kd) with C3b C3b (Homo sapiens) [1] is 4 µM.

“complement factor H rFH1-4 N-terminal modules 1-4 (from UniProt P08603)”: in the data set with C3b C3b (Homo sapiens) [2], the Kd is 10 µM.
